Source: paper PMC11771877 (PLOS Pathogens, 2025)

Columns and labels:
Assay in all cases: pull-down
Settings in all cases: both partners purified
[1] = target: Omicron mutant N protein, His-tagged (SARS-CoV-2, UniProt P0DTC9 1-419, P13L | RG203/204KR)
[2] = target: original purified His-tagged N protein (SARS-CoV-2, UniProt P0DTC9 1-419)
[3] = target: R203M and D377Y mutant N protein, His-tagged (SARS-CoV-2, UniProt P0DTC9 1-419, R203M | D377Y)

Measured: binding result

B1: purified RIG-I-GST protein (natural protein)
chain: MTTEQRRSLQAFQDYIRKTLDPTYILSYMAPWFREEEVQYIQAEKNNKGPMEAATLFLKFLLELQEEGWFRGFLDALDHAGYSGLYEAIESWDFKKIEKLEEYRLLLKRLQPEFKTRIIPTDIISDLSECLINQECEEILQICSTKGMMAGAEKLVECLLRSDKENWPKTLKLALEKERNKFSELWIVEKGIKDVETEDLEDKMETSDIQIFYQEDPECQNLSENSCPPSEVSDTNLYSPFKPRNYQLELALPAMKGKNTIICAPTGCGKTFVSLLICEHHLKKFPQGQKGKVVFFANQIPVYEQQKSVFSKYFERHGYRVTGISGATAENVPVEQIVENNDIIILTPQILVNNLKKGTIPSLSIFTLMIFDECHNTSKQHPYNMIMFNYLDQKLGGSSGPLPQVIGLTASVGVGDAKNTDEALDYICKLCASLDASVIATVKHNLEELEQVVYKPQKFFRKVESRISDKFKYIIAQLMRDTESLAKRICKDLENLSQIQNREFGTQKYEQWIVTVQKACMVFQMPDKDEESRICKALFLYTSHLRKYNDALIISEHARMKDALDYLKDFFSNVRAAGFDEIEQDLTQRFEEKLQELESVSRDPSNENPKLEDLCFILQEEYHLNPETITILFVKTRALVDALKNWIEGNPKLSFLKPGILTGRGKTNQNTGMTLPAQKCILDAFKASGDHNILIATSVADEGIDIAQCNLVILYEYVGNVIKMIQTRGRGRARGSKCFLLTSNAGVIEKEQINMYKEKMMNDSILRLQTWDEAVFREKILHIQTHEKFIRDSQEKPKPVPDKENKKLLCRKCKALACYTADVRVIEECHYTVLGDAFKECFVSRPHPKPKQFSSFEKRAKIFCARQNCSHDWGIHVKYKTFEIPVIKIESFVVEDIATGVQTLYSKWKDFHFEKIPFDPAEMSK
notes: also called GST-RIG-I; RIG-I protein (labeled with GST tag); source: E. coli BL21, purified (GSH Magnetic Agarose Beads)
binds: [1] | [2] | [3]
